Assay results published in the supplement of paper PMC5998384.

Tests used:
HeLa Kyoto [1] = assay: solubility in G1/S (NP-40 vs SDS abundance) (log2 ratio); higher = more soluble; conditions: cell cycle stage: G1/S
HeLa Kyoto [2] = assay: melting temperature (median over replicates), in situ; higher = more thermally stable
HeLa Kyoto [3] = assay: solubility change mitosis vs G1/S (difference of NP-40 vs SDS log2 ratios) (log2 ratio difference); higher = more soluble in mitosis
HeLa Kyoto [4] = assay: thermal stability score vs G1/S (z-score of summed log2 fold changes over temperatures); higher = more thermally stable than in G1/S
[5] = cell cycle stage: early G1 (4.5 h after nocodazole release)
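Throughout, for melting temperature (median over replicates), in situ: HeLa Kyoto cells synchronized by double thymidine or nocodazole block, proteins quantified by TMT10plex mass spectrometry, three independent biological replicates.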
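Throughout, for solubility change mitosis vs G1/S (difference of NP-40 vs SDS log2 ratios): synchronized HeLa Kyoto cells (double thymidine block for G1/S, nocodazole release for mitosis), protein amounts in NP-40 versus SDS lysates quantified by mass spectrometry, three biological replicates.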
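Throughout, for solubility in G1/S (NP-40 vs SDS abundance): HeLa Kyoto cells arrested at G1/S by double thymidine block, proteins quantified by TMT10plex mass spectrometry in mild NP-40 versus SDS extracts, three biological replicates.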
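Throughout, for thermal stability score vs G1/S (z-score of summed log2 fold changes over temperatures): synchronized HeLa Kyoto cells, proteins quantified by TMT10plex mass spectrometry, three biological replicates, mitosis taken 0.5 h after nocodazole release, G1/S directly after double thymidine block.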

Row | Sequence | solubility in G1/S (log2) (HeLa Kyoto [1]) | melting temperature (HeLa Kyoto [2]; cell cycle stage: G1/S) | melting temperature (HeLa Kyoto [2]; cell cycle stage: mitosis) | solubility change mitosis (log2) (HeLa Kyoto [3]) | thermal stability score (HeLa Kyoto [4]; [5]) | thermal stability score (HeLa Kyoto [4]; cell cycle stage: mitosis)
1 | MAPRLQLEKAAWRWAETVRPEEVSQEHIETAYRIWLEPCIRGVCRRNCKGNPNCLVGIGEHIWLGEIDENSFHNIDDPNCERRKKNSFVGLTNLGATCYVNTFLQVWFLNLELRQALYLCPSTCSDYMLGDGIQEEKDYEPQTICEHLQYLFALLQNSNRRYIDPSGFVKALGLDTGQQQDAQEFSKLFMSLLEDTLSKQKNPDVRNIVQQQFCGEYAYVTVCNQCGRESKLLSKFYELELNIQGHKQLTDCISEFLKEEKLEGDNRYFCENCQSKQNATRKIRLLSLPCTLNLQLMRFVFDRQTGHKKKLNTYIGFSEILDMEPYVEHKGGSYVYELSAVLIHRGVSAYSGHYIAHVKDPQSGEWYKFNDEDIEKMEGKKLQLGIEEDLAEPSKSQTRKPKCGKGTHCSRNAYMLVYRLQTQEKPNTTVQVPAFLQELVDRDNSKFEEWCIEMAEMRKQSVDKGKAKHEEVKELYQRLPAGAEPYEFVSLEWLQKWLDESTPTKPIDNHACLCSHDKLHPDKISIMKRISEYAADIFYSRYGGGPRLTVKALCKECVVERCRILRLKNQLNEDYKTVNNLLKAAVKGSDGFWVGKSSLRSWRQLALEQLDEQDGDAEQSNGKMNGSTLNKDESKEERKEEEELNFNEDILCPHGELCISENERRLVSKEAWSKLQQYFPKAPEFPSYKECCSQCKILEREGEENEALHKMIANEQKTSLPNLFQDKNRPCLSNWPEDTDVLYIVSQFFVEEWRKFVRKPTRCSPVSSVGNSALLCPHGGLMFTFASMTKEDSKLIALIWPSEWQMIQKLFVVDHVIKITRIEVGDVNPSETQYISEPKLCPECREGLLCQQQRDLREYTQATIYVHKVVDNKKVMKDSAPELNVSSSETEEDKEEAKPDGEKDPDFNQSNGGTKRQKISHQNYIAYQKQVIRRSMRHRKVRGEKALLVSANQTLKELKIQIMHAFSVAPFDQNLSIDGKILSDDCATLGTLGVIPESVILLKADEPIADYAAMDDVMQVCMPEEGFKGTGLLGH [USP48] | -0.074 | 47.4 °C | 49.1 °C | -0.183 | 1.52 | 2.6
2 | MAPSTPLLTVRGSEGLYMVNGPPHFTESTVFPRESGKNCKVCIFSKDGTLFAWGNGEKVNIISVTNKGLLHSFDLLKAVCLEFSPKNTVLATWQPYTTSKDGTAGIPNLQLYDVKTGTCLKSFIQKKMQNWCPSWSEDETLCARNVNNEVHFFENNNFNTIANKLHLQKINDFVLSPGPQPYKVAVYVPGSKGAPSFVRLYQYPNFAGPHAALANKSFFKADKVTMLWNKKATAVLVIASTDVDKTGASYYGEQTLHYIATNGESAVVQLPKNGPIYDVVWNSSSTEFCAVYGFMPAKATIFNLKCDPVFDFGTGPRNAAYYSPHGHILVLAGFGNLRGQMEVWDVKNYKLISKPVASDSTYFAWCPDGEHILTATCAPRLRVNNGYKIWHYTGSILHKYDVPSNAELWQVSWQPFLDGIFPAKTITYQAVPSEVPNEEPKVATAYRPPALRNKPITNSKLHEEEPPQNMKPQSGNDKPLSKTALKNQRKHEAKKAAKQEARSDKSPDLAPTPAPQSTPRNTVSQSISGDPEIDKKIKNLKKKLKAIEQLKEQAATGKQLEKNQLEKIQKETALLQELEDLELGI [EIF2A] | 0.224 | 52.1 °C | 51.7 °C | -0.121 | -0.606 | -1.22
3 | MAPVEHVVADAGAFLRHAALQDIGKNIYTIREVVTEIRDKATRRRLAVLPYELRFKEPLPEYVRLVTEFSKKTGDYPSLSATDIQVLALTYQLEAEFVGVSHLKQEPQKVKVSSSIQHPETPLHISGFHLPYKPKPPQETEKGHSACEPENLEFSSFMFWRNPLPNIDHELQELLIDRGEDVPSEEEEEEENGFEDRKDDSDDDGGGWITPSNIKQIQQELEQCDVPEDVRVGCLTTDFAMQNVLLQMGLHVLAVNGMLIREARSYILRCHGCFKTTSDMSRVFCSHCGNKTLKKVSVTVSDDGTLHMHFSRNPKVLNPRGLRYSLPTPKGGKYAINPHLTEDQRFPQLRLSQKARQKTNVFAPDYIAGVSPFVENDISSRSATLQVRDSTLGAGRRRLNPNASRKKFVKKR [NOB1] | -0.457 | 50.3 °C | 49.8 °C | 0.197 | 0.938 | 0.387
4 | MAPVHGDDSLSDSGSFVSSRARREKKSKKGRQEALERLKKAKAGEKYKYEVEDFTGVYEEVDEEQYSKLVQARQDDDWIVDDDGIGYVEDGREIFDDDLEDDALDADEKGKDGKARNKDKRNVKKLAVTKPNNIKSMFIACAGKKTADKAVDLSKDGLLGDILQDLNTETPQITPPPVMILKKKRSIGASPNPFSVHTATAVPSGKIASPVSRKEPPLTPVPLKRAEFAGDDVQVESTEEEQESGAMEFEDGDFDEPMEVEEVDLEPMAAKAWDKESEPAEEVKQEADSGKGTVSYLGSFLPDVSCWDIDQEGDSSFSVQEVQVDSSHLPLVKGADEEQVFHFYWLDAYEDQYNQPGVVFLFGKVWIESAETHVSCCVMVKNIERTLYFLPREMKIDLNTGKETGTPISMKDVYEEFDEKIATKYKIMKFKSKPVEKNYAFEIPDVPEKSEYLEVKYSAEMPQLPQDLKGETFSHVFGTNTSSLELFLMNRKIKGPCWLEVKSPQLLNQPVSWCKVEAMALKPDLVNVIKDVSPPPLVVMAFSMKTMQNAKNHQNEIIAMAALVHHSFALDKAAPKPPFQSHFCVVSKPKDCIFPYAFKEVIEKKNVKVEVAATERTLLGFFLAKVHKIDPDIIVGHNIYGFELEVLLQRINVCKAPHWSKIGRLKRSNMPKLGGRSGFGERNATCGRMICDVEISAKELIRCKSYHLSELVQQILKTERVVIPMENIQNMYSESSQLLYLLEHTWKDAKFILQIMCELNVLPLALQITNIAGNIMSRTLMGGRSERNEFLLLHAFYENNYIVPDKQIFRKPQQKLGDEDEEIDGDTNKYKKGRKKAAYAGGLVLDPKVGFYDKFILLLDFNSLYPSIIQEFNICFTTVQRVASEAQKVTEDGEQEQIPELPDPSLEMGILPREIRKLVERRKQVKQLMKQQDLNPDLILQYDIRQKALKLTANSMYGCLGFSYSRFYAKPLAALVTYKGREILMHTKEMVQKMNLEVIYGDTDSIMINTNSTNLEEVFKLGNKVKSEVNKLYKLLEIDIDGVFKSLLLLKKKKYAALVVEPTSDGNYVTKQELKGLDIVRRDWCDLAKDTGNFVIGQILSDQSRDTIVENIQKRLIEIGENVLNGSVPVSQFEINKALTKDPQDYPDKKSLPHVHVALWINSQGGRKVKAGDTVSYVICQDGSNLTASQRAYAPEQLQKQDNLTIDTQYYLAQQIHPVVARICEPIDGIDAVLIATWLGLDPTQFRVHHYHKDEENDALLGGPAQLTDEEKYRDCERFKCPCPTCGTENIYDNVFDGSGTDMEPSLYRCSNIDCKASPLTFTVQLSNKLIMDIRRFIKKYYDGWLICEEPTCRNRTRHLPLQFSRTGPLCPACMKATLQPEYSDKSLYTQLCFYRYIFDAECALEKLTTDHEKDKLKKQFFTPKVLQDYRKLKNTAEQFLSRSGYSEVNLSKLFAGCAVKS [POLA1] | -0.19 | 49 °C | 50.1 °C | -0.107 | 1.03 | 3.37
5 | MAPWGKRLAGVRGVLLDISGVLYDSGAGGGTAIAGSVEAVARLKRSRLKVRFCTNESQKSRAELVGQLQRLGFDISEQEVTAPAPAACQILKEQGLRPYLLIHDGVRSEFDQIDTSNPNCVVIADAGESFSYQNMNNAFQVLMELEKPVLISLGKGRYYKETSGLMLDVGPYMKALEYACGIKAEVVGKPSPEFFKSALQAIGVEAHQAVMIGDDIVGDVGGAQRCGMRALQVRTGKFRPSDEHHPEVKADGYVDNLAEAVDLLLQHADK [LHPP] | 0.392 | 56.5 °C | 55.5 °C | 0.0085 | -1.67 | -2.15
6 | MAQFVRNLVEKTPALVNAAVTYSKPRLATFWYYAKVELVPPTPAEIPRAIQSLKKIVNSAQTGSFKQLTVKEAVLNGLVATEVLMWFYVGEIIGKRGIIGYDV [ATP5L] | -0.573 | 55 °C | 52.8 °C | 0.0203 | -1.18 | -2.02
7 | MAQKKYLQAKLTQFLREDRIQLWKPPYTDENKKVGLALKDLAKQYSDRLECCENEVEKVIEEIRCKAIERGTGNDNYRTTGIATIEVFLPPRLKKDRKNLLETRLHITGRELRSKIAETFGLQENYIKIVINKKQLQLGKTLEEQGVAHNVKAMVLELKQSEEDARKNFQLEEEEQNEAKLKEKQIQRTKRGLEILAKRAAETVVDPEMTPYLDIANQTGRSIRIPPSERKALMLAMGYHEKGRAFLKRKEYGIALPCLLDADKYFCECCRELLDTVDNYAVLQLDIVWCYFRLEQLECLDDAEKKLNLAQKCFKNCYGENHQRLVHIKGNCGKEKVLFLRLYLLQGIRNYHSGNDVEAYEYLNKARQLFKELYIDPSKVDNLLQLGFTAQEARLGLRACDGNVDHAATHITNRREELAQIRKEEKEKKRRRLENIRFLKGMGYSTHAAQQVLHAASGNLDEALKILLSNPQMWWLNDSNPETDNRQESPSQENIDRLVYMGFDALVAEAALRVFRGNVQLAAQTLAHNGGSLPPELPLSPEDSLSPPATSPSDSAGTSSASTDEDMETEAVNEILEDIPEHEEDYLDSTLEDEEIIIAEYLSYVENRKSATKKN [NUB1] | -0.169 | 47.9 °C | 50.3 °C | -0.203 | 1.06 | 1.85
8 | MAQPGPASQPDVSLQQRVAELEKINAEFLRAQQQLEQEFNQKRAKFKELYLAKEEDLKRQNAVLQAAQDDLGHLRTQLWEAQAEMENIKAIATVSENTKQEAIDEVKRQWREEVASLQAVMKETVRDYEHQFHLRLEQERTQWAQYRESAEREIADLRRRLSEGQEEENLENEMKKAQEDAEKLRSVVMPMEKEIAALKDKLTEAEDKIKELEASKVKELNHYLEAEKSCRTDLEMYVAVLNTQKSVLQEDAEKLRKELHEVCHLLEQERQQHNQLKHTWQKANDQFLESQRLLMRDMQRMEIVLTSEQLRQVEELKKKDQEDDEQQRLNKRKDHKKADVEEEIKIPVVCALTQEESSAQLSNEEEHLDSTRGSVHSLDAGLLLPSGDPFSKSDNDMFKDGLRRAQSTDSLGTSGSLQSKALGYNYKAKSAGNLDESDFGPLVGADSVSENFDTASLGSLQMPSGFMLTKDQERAIKAMTPEQEETASLLSSVTQGMESAYVSPSGYRLVSETEWNLLQKEVHNAGNKLGRRCDMCSNYEKQLQGIQIQEAETRDQVKKLQLMLRQANDQLEKTMKDKQELEDFIKQSSEDSSHQISALVLRAQASEILLEELQQGLSQAKRDVQEQMAVLMQSREQVSEELVRLQKDNDSLQGKHSLHVSLQQAEDFILPDTTEALRELVLKYREDIINVRTAADHVEEKLKAEILFLKEQIQAEQCLKENLEETLQLEIENCKEEIASISSLKAELERIKVEKGQLESTLREKSQQLESLQEIKISLEEQLKKETAAKATVEQLMFEEKNKAQRLQTELDVSEQVQRDFVKLSQTLQVQLERIRQADSLERIRAILNDTKLTDINQLPET [RABEP1] | 0.412 | 51 °C | 50.4 °C | -0.0841 | -1 | -0.882
9 | MAQPPPDVEGDDCLPAYRHLFCPDLLRDKVAFITGGGSGIGFRIAEIFMRHGCHTVIASRSLPRVLTAARKLAGATGRRCLPLSMDVRAPPAVMAAVDQALKEFGRIDILINCAAGNFLCPAGALSFNAFKTVMDIDTSGTFNVSRVLYEKFFRDHGGVIVNITATLGNRGQALQVHAGSAKAAVDAMTRHLAVEWGPQNIRVNSLAPGPISGTEGLRRLGGPQASLSTKVTASPLQRLGNKTEIAHSVLYLASPLASYVTGAVLVADGGAWLTFPNGVKGLPDFASFSAKL [DECR2] | 0.0495 | 51.9 °C | 52.1 °C | -0.232 | 1.32 | 0.657
